# Measurements published in the DeepSol protein solubility set.
# Test: soluble on expression in E. coli; label from the status in PepcDB or PDB records
row,Sequence,soluble on expression in E. coli
1,MMEIKRVLKDRLSARVCVIGAGPSGIAAIKNLQEHGITNVTVFEKNNQIGGNWVYDEQNEHSSVYETTHIISSKRWSEFEDFPMPVDYPDYPSHSQLLKYFQSYVEHFHLDRYIRFNTVVQKVHRLDDNTWHVIYEDAQGIHEACYDYLLVANGHHWDPFMPVYPGVFDGEILHSHQYKKASIFKGKRVLVVGGGNSACDVAVEISRVAPGTCISMRRGYHIFPKFIFGKPTDVAVAKIQWMPSWLRQKFISLVIRGLQGRYAKYKLMKPDCGPLEIHPTINSELLYFIRHGKIHPRSGISRFEGNTVHFTDRTQGEFDTIIFATGYQISFPFFDKSCIDFSNSTTIPLYRKMMHPEFENLYFIGLCQPQGCIWPLADYQSKIVARIIAGTLKRPDQLHRKIAKEINKPHHRFKSHMRHALEVDYHIFRKELLEMLGQKHKRLKFYPLEHHHHHH,soluble
2,MAFDGLFTRAITHEIANSLYTGRISKIYQPSKYEILLHIRANGKNQKLILSAHPTYARLHLTNQNYDSPALPPMFCMLLRKHLEGGFIEKIEQIDLERIIQITVRSRNEIGDESLKTLVIEIMGRHSNIILVDTKTNNILDSLKHVSLAVNRHRTVYAGAEYIAPPVQHKINPLQIETNDEFIRPLDFLSGNMDKQLVGTFTGISPLFAKEVVKKAGMVNEKALADAFFSIQKPLLTHTYSPTMTTSNGKEFFYLFPLAHLAGENKTFSSVSELLDRFFFGKAERDRVKQQAHDLERFMQNEKNKNEKKLIKLEKTLQDAGKADKYQLFGELLTANMYALKKGDKDIEVVNYYDENGGTVKIALDPLKTPSENAQRYFQKYQKAKNSIVVVEEQIEKTKEEILYFDSLLQQMEAASSKDIEEIREELAEEGYMRNRKTKNAKKKPTKPVLDKYVASDGTEIFVGKNNKQNDYLTTKFARRDEIWLHTKDIPGSHVVIRSLEPAEETLLEAAKIAAYYSKAKESSSVPVDFTKIRHVKKPSGAKLGFVTYDNQQTVYVTPDADTVMKLKA,not soluble
3,VLTEMRADARVAILEELSEAELNFTLAKLDNLSLIEWAESLPDDIFSLALQLISRDELDLYDDAKQYDDDEVGHWADRKIATLPFNVSVGRAKKLLKTNLFESHQYMHLINRAHKFHGIVQYTDILTADDSVKINTLKLEDCLVLNVHQPLSESIEAIEHSAVPSVAIVDDENTLIGQLDWQFAINTQREIYETRLMAGTGMDEGDDLFSPIIKSSKKRGV,not soluble
4,MSLQVTDVEIAQYYQDNKAQFMTQHLAHIQFANEQDAKVAYEELQKGANFADVAKAKSLDKISGENGGDLGWVNENELPKAFEDAAAALQVGQYSQPINVDGNYHIVLVQERKAQSLENVKAQIADLVRKSLMESRYFSLEKQASDKAFEDSKSLNTAAQAAGVKVQESDYFSRQNVPAGLNFPNVIYTIFESDTTNVGMNSEPINVGDYHTIIVRVLDRKAEGVKSLEEAKIDIETFLKRQKAENALNGKAQQAVKKLSENPESKVDGINFSSEQTFTLSENKDPILTNGIFSIAKPESSKALYQVVHNSNGDVVVVALNKVEQGSLSEKELSQFAMQLLRSHQSELQVQLIQGLRERAKIEVNDSFINQDDEAQEGHHHHHH,soluble
5,MDNSVMLDYLAVTIKGLAPDDVIEKILILPKDKFVLNEWGINKYQRHYSFSEIKVYFNKDWQSKMGVFIELRGQGCRQYEEYMENNVNNWVTLMKRISECHSNVTRLDIANDIFDDSLSVPLIYSYCKKQLCISTAKTFDYHEKSLLENGEKVGEMVTIGVRGTQQWCVYNKLLEQKLDQELPNTPLSWTRAELRCWQEKANLLAKQIKEGRPLKEIYFEVINGHYRFVSPRDKDSNRWRRKTVKWWNDYLETQEKTVLSVKRTKPTLKRSEKWTEKQVSRTLGKLYVAKAESHGQEKADSYIQHLLELGISKLTETDETDIQQYKQEQLSSAYWGIRKDDL,not soluble
6,MKKILLVLNHSLAGFGSDEQAQLKPSGKKAPLGPGVTLLPFLQKQGAEIVATLYCGDQYYLENEEEVAKKFIGFAKKFHADAVLCGPAMHYPNFGEMAARLACKFNAAGIPAIAAMAEENPAVSHYYQQVPIVKMPKKGGIGLNNSFKQMAQLVVAKANGKETKQLEETSCF,not soluble
7,MTAENLSLSPELLDAVRRISGTEHLLVALDFDGTLSPIVDRAEDARPLPRSAAALEALAQLPRTTTALISGRALDSLRLVASPPADTLLIGSHGAEVWLGEGSLGLELDEDQRLKLAAVREVLSEIVNIAPGTLLEDKPAGVVLHTRMADDDVADDAVEAAMRVLREHPGVYLKTGKRVLETSVVHASKGQAVEFLRQATGATAILFAGDDVTDEDALGRLMGDDVGIKVGLDFTQAQYRVEAPVHVAELLEALLRERRRVTTDA,soluble
8,MFERNREATMIFNIQRYSTHDGPGIRTVVFLKGCSLGCRWCQNPESRARTQDLLYDPRLCLEGCKLCAKTAPEVIERALNGLLIHREKLTPEHFTALTDCCPTQALTVCGEVKSVEEIMATVLRDKPFYDRSGGGLTLSGGEPFMQPEMATALLQASHEAGIHTAVETCLHVPWKYIAPSLPYIDLFLADLKHVADAPFKQWTDGNAARVLDNLKKLAAAGKKIIIRVPLIQGFNADETSVKAITDFAADELHVSEIHFLPYHTLGINKYHLLNLPYDAPEKPLDAPELLDFAQQYACQKGLTATLRG,not soluble
9,MTDYAHKMSLDLRMIDLERYSDHIDNKASHCAKMLNDYYQKFDAQKGTQFVFSDLGTYKPGGEFNVYSEIKRKLVEDYHIPSHEVRFIQECKNEKAKKAMVDAMNRGDIRIIFGSTSMLGTGVNAQQRAVAIHHLDTPWRPSDLEQRNGRAVRKGNMIAKEFADNKVDVIIYAVERSLDSYKFNLLHNKQLFINQLKTNTLGSRTIDEGSMDEDGGMNFSEYVAVLSGNTNLLEKAKLDKKIATLESERKNFLRERDTATGKLAEIDSSVSFHSDKIKEAKEDLACFEKRVERDAEGLPINKLTIKGVEGSTDIKVIAARLQEIEEKARTKGEYNKIGEIYGFSIMVKTENSSKELFDCSSNRFFVKGQESIYYTYNNGKLASDPKLACQNFINALERIPKVIESHEKEKEKVSANKEVYMTIAGGSWKKEDELRSLKGQAAELDRKIALTLAPPEEEKETEEEKQVQEHGISGKEPIQETRYSAEPISHKQAEKTPPSEQVTPPPTRQPRSNEPGGYIETQMEIG,not soluble
10,MANLATVERYVSAAAQRGADMVVFPEATMQGFGTGRLDRVAERIDGPFATRICQLARELNIVIVVGMFSPADTHDGKQRINNVALIAHPDSVREYRKIHTYDAFGFKESDTVRPGNQLVTFPVGDVTCGIAVCYDVRFPQQFIDLARLGAEVIVLPASWADGEGKLEQWRTLTAARALDSTSYIVACDQAVAEDERAPGAPTGVGHSAVVTPDGRRIAEAGTGEELFMVNVNRDLVRRTREAIPVLADAGYNQNGE,not soluble
11,MSLSLEYKGTFGSINAGYADWNSGFVNTHRGEVWKVTADFGVNFKEAEFYSFYESNVLNHAVAGRNHTVSAMTHVRLFDSDMTFFGKIYGQWDNSWGDDLDMFYGFGYLGWNGEWGFFKPYIGLHNQSGDYVSAKYGQTNGWNGYVVGWTAVLPFTLFDEKFVLSNWNEIELDRNDAYTEQQFGRNGLNGGLTIAWKFYPRWKASVTWRYFDNKLGYDGFGDQMIYMLGYDFEGHHHHHH,not soluble
12,MGSDKIHHHHHHMKIAVVGLGNIGFNLFSYINKKYPNSVVGVDIDAGRVNDLRSQGYRVTTDYRALTGIDIWLLAPSTGDQGENLFAALGEMIICPGALISIESTLPPGTMELVRKYLEGKGYRCGQDVYLIHVPHRVMFGVDETVCDTPRVMGAFTQACRDKGRQFYEPLVPQLVEVEDVRIAELSKVVENVKRYVDVAFAQELYQYCKDQGMDFAELRKAVNSKSNVELLGTDWGIGGECLPKDMRFLRKVCPSPLLEGAAIADQEYRDRILQQVGTHQNVLIKGLSYKAGVKDLKHSRGVDLVRALEEAGNTVWVVDPLFTPEELEAAGFKTVEKFDEADLQGWIVLEREKALK,not soluble
13,GVRFAFGPTVDFHFGENYAFSTGAWYLSSRAGLSQSVPGLTYKEIVSLQSVQIPVTFKAYTNEIATNMKLYFQLGGLATFNFYEKFKESTPSNSSYDDKYNVFDVSLYVGAGVSYKIGESNALFGGFYYSRGLMNMLDGSTIPGTSDRYKKAAKYNNDLVGLEVGITF,not soluble
14,MTDVALSQDVSRFLRYLGVERQLSPITLLNYQRQLDAIIALAGETGLKSWQQCDAAIVRSFAVRSRRKGLGPASLALRLSALRSFFDWLVSQGELKANPAKGVSAPKAPRHLPKNIDVDDVNRLLDIDLNDPLAVRDRAMLEVMYGAGLRLSELVGLDIKHLDLDTGEVWVMGKGSKERRLPIGRNAVTWIEHWLDLRGLFASDEEALFLSKLGKRISARNVQKRFAEWGIKQGLNSHVHPHKLRHSFATHMLESSGDLRGVQELLGHANLSTTQIYTHLDFQHLASVYDAAHPRAKRGK,not soluble
15,MGSDKIHHHHHHMTEFEVHIDLGGSTFPVGLARCNRVRGTERILFEYDAEWLASPDRFSLEPALALTRGAFAPPAGMTSFGSIGDSAPDTWGRRLMQRAERRRAAREGRSVRTLAESDYLLGVSDETRLGALRFRRVGETSFQAPIQAGVPALVELGRLLQVTERVLRDEETDEDLQLIFAPGSSLGGARPKASVIDQYGHLAIAKFPKDTDEYSVETWEEIALRLANQAGIVTPQHELVDVGGRAVMLSRRFDRDGTIRIPFLSAMAMMGARDGEPGSYPEMVDALTAHGAQGKTDAHALYRRVVFSVMISNVDDHLRNHGFLWLGNAGWSLAPAYDLNPVPSDLKARVLTTNIDLDESTCSVDLLEAASGYFGLTLANARRIIKDVASVTATWRNTARAVGARPAEIERMASAFEHDDLQHGLAL,not soluble
16,MSLGTVTITEMDCVDGVHRIGVATLDNTPSLNALTFDMLLQLHDQLIKWQHDPHVVCVVLSGAGEKAFCAGGDVRAMYHVMHNESKEATVEFCTKYFALEYECDYLIHTYNKPIIGWGEGIVMGGGMGLFMGTSHKVVTPISRLAMPEINIGLYPDVGGTWFLSQIDPEVGLFLGLTGALVNSSDAVTTGLADWLLLEEQYPTLLKELQKVPWGTSGAKELVSALLALLEEQIIDSKPTTQICPHLEQIKEACKGVDLNLIAQRIMAMEDSSPWIAGAKETFSSGSPITAHICFRQVKEYHRLPLADCFRLELSLSVRCALLGEFEEGVRARLIDRDGEPNWMFKTVSEVDEDVIDLLFTSLWADAEHPLAKLGEGHHHHHH,soluble
17,MSLNRLSIPYSNKSLDYYFFVIQEASVKRAVLARSGEFQATNANFDNTRQLEQWQSLLLSRPSAIISDPIDSQAIVSAIRRYNREKIPVGIIDTPADGGDVAITVSFDNFQGGVMAAEEIVNRLITRYGRPKGTVLNCYGALASVAWRLRKEGMDSVFAKYPGITYLARPTDGQLEKMLSVTLSTLSEYPDLDAVHAPSDSPSRGIVTALQQKGRWKKIGEAGHVIFVNIDGEPIALKWIQDGYMDACISQDPVAYGEIAVDMIVKHALKGEAVPLGTYQDKKYFWESGEIVQGKTGPTLIIPAFVINRDNVQDPRHWASVAEKTWGIPEGHHHHHH,soluble
18,MGSDKIHHHHHHMSNISEIVVELFKEASIYLPDDVKSKLKHAEEVECGACKDTLQAIELNNKIAETKQIPLCQDTGVPVIFLKIGTGISSERIIEIIKEIESGVKRATAEVPLRPNVVNPITRENLGTNTGMGAPFINFEFSENLNNEIEISVFPKGAGSENMSALKMLTPSEGLMGIKKFILETVANAGGKPCPPIVLGIGIGGTADISLKLAKKALLRDIGNRNPEKTIENLEKELLDSINQLGIGTMGLGGKITALDVFIEVNGCHTASLPVGICIQCWADRKAKRKIKL,not soluble
